Consider 16 proteins from the PETadex activity labels (doi:10.1101/2025.08.30.673199).

Substrate in this data set: PET
Briefly: Proxy for plastic degradation [Released monomer concentration (HPLC/LC-MS) (TPA+MHET+BHET)]. To be noted: pH 9.

Changes are numbered by the printed parent chain.

B1: unnamed (protein)
chain: MKAPLFKLAAFTLGVSLSSVALATNPGGGGAGSNPDTGTGFPGVSSFSADGSFATTSGSAGLSCTVFRPSTLGANGLKHPIIVWGNGTTASPSTYSGILEHWASHGFVVIAANTSNAGTGQDMLNCVDYLTTQNNRSTGTYANKLDLNRIGAAGHSQGGGGTIMAGQDYRIKVTAPFQPYTIGLGHNSSSQSNQNGPMFLMTGSADTIASPTLNALPVYNRANVPVFWGELSGASHFEPMGSAGDFRGPSTAWFRYHLMDDASAEDTFYGSNCDLCTDNDWDVRRKGIN
On to B1, for which the “Proxy for plastic degradation” value amounted to 870 µM.

B2: unnamed (protein)
chain: B1 chain with Y180W, N214S, V218I, M240V
Consider B2, for which the “Proxy for plastic degradation” value was found to be 105 µM.

B3: unnamed (protein)
chain: B1 chain with S156A, M240V
B3: the “Proxy for plastic degradation” value was determined as 10 µM.

B4: unnamed (protein)
chain: B1 chain with Q157M, M240V
Take B4: the “Proxy for plastic degradation” value was 315 µM.

B5: unnamed (protein)
chain: B1 chain with L184A, M240V
Take B5: the “Proxy for plastic degradation” value amounted to 820 µM.

B6: unnamed (protein)
chain: B1 chain with H186A, M240V
As for B6, the “Proxy for plastic degradation” value is 120 µM.

B7: unnamed (protein)
chain: B1 chain with T88Y, M240V
On to B7, for which the “Proxy for plastic degradation” value was found to be 345 µM.

B8: unnamed (protein)
chain: B1 chain with M240V
For B8, the “Proxy for plastic degradation” value came out at 1020 µM.

B9: unnamed (protein)
chain: B1 chain with C126A, M240V
Take B9: the “Proxy for plastic degradation” value was 250 µM.

B10: unnamed (protein)
chain: B1 chain with F237I
As for B10, the “Proxy for plastic degradation” value is 600 µM.

B11: unnamed (protein)
chain: B1 chain with D206A, M240V
For the protein B11, the “Proxy for plastic degradation” value amounted to 10 µM.

B12: unnamed (protein)
chain: B1 chain with Y180F, M240V
Turning to B12, the “Proxy for plastic degradation” value came to 375 µM.

B13: unnamed (protein)
chain: B1 chain with Y180W, N214H, V218F, M240V
As to B13, the “Proxy for plastic degradation” value is 85 µM.

B14: unnamed (protein)
chain: B1 chain with G185A, M240V
Regarding B14, the “Proxy for plastic degradation” value was found to be 540 µM.

B15: unnamed (protein)
chain: B1 chain with N187A, M240V
As for B15, the “Proxy for plastic degradation” value amounted to 920 µM.

B16: unnamed (protein)
chain: B1 chain with M240V, C273A
With B16, the “Proxy for plastic degradation” value was 10 µM.
